Source: paper PMC5351860, “Novel fimbrilin PGN_1808 in Porphyromonas gingivalis” (PLoS ONE, 2017)

Biological target: the molecule itself
Experiment: SDS-PAGE after partial denaturation; fractionated fimbriae in loading buffer with 1% SDS and 0.5 M 2-mercaptoethanol heated at 37, 60 and/or 80°C for 10 min; CBB staining and western blotting

B1: Mfa1 (Mfa1 fimbriae purified from the fimA gene-deletion mutant of P. gingivalis ATCC 33277) (natural protein)
chain: AGDGQDQANPDYHYVGEWAGKDKIEKVSIYMVPQGGPGLVESAEDLDFGTYYENPTIDPATHNAILKPKKGIKVNSAVGKTVKVYVVLNDIAGKAKALLANVNAADFDAKFKEIIELSTQAQALGTVADGPNPATAAGKIAKKNGTTDETIMMTCLQPSDALTIEAAVSEANAIAGIKNQAKVTVERSVARAMVSTKAQSYEIKATTQIGEIAAGSVLATITDIRWVVAQGERRQYLSKKRGTVPENTWVTPGSGFVPTSSTFHTNATEYYDYAGLWEDHNTNEAVISGTQVPTLADYQLQDVTGELANALSGKFLLPNTHKSGANAASSDYKRGNTAYVLVRAKFTPKKEAFIDRGKTYSDNTAVPEYVAGEDFFVGENGQFYVSMKSVTDPKVGGVAGMKAHKYVKGKVLYYAWLNPSTTSPDSWWNSPVVRNNIYHIHIKSIKKLGFNWNPLVPDPDPSNPENPNNPDPNPDEPGTPVPTDPENPLPDQDTFMSVEVTVLPWKVHSYEVDL
notes: source: fimA gene-deletion mutant derived from P. gingivalis ATCC 33277; fractionated by ammonium sulfate precipitation and DEAE Sepharose chromatography
Q: Does B1 bind?
A: binds
